Test results taken from patent US20100260668A1 (published 2010).
Where “and” joins values, the source holds several entries; their conditions need not be identical. Identical values can stand only once.

Key:
[1] = molecular target: T1, ErbB3 (ErbB3 ECD/FC Chimera-His tag, R&D 348-RB-050) (UniProt P21860 20-643, limits assumed); assay: direct bind ELISA, coated antigen; parent reference antibody
T1 construct: extracellular domain; Bought antigen coated on the ELISA plate

[2] = molecular target: T2, insulin-like growth factor receptor (IGF1R) (human, UniProt P08069 31-1367); assay: cell-based or functional assay
[3] = molecular target: T2, insulin-like growth factor receptor …; assay: cell-based or functional assay; remark: listed apart in the source
[4] = molecular target: T2, insulin-like growth factor receptor …; assay: cell-based or functional assay; remark: listed apart in the source
[5] = molecular target: T3, VEGF (VEGF 1-165 aa, R&D Systems 293-VE-010) (UniProt P15692 27-191); assay: Direct bind ELISA, VEGF coated on plate; VEGF domain N-term., HC short/LC long
T3 construct: bought reagent; also called vascular endothelial growth factor

[6] = molecular target: T3, VEGF (VEGF 1-165 aa, R&D Systems …); assay: Direct bind ELISA, VEGF coated on plate; VEGF domain C-term., HC short/LC long
[7] = molecular target: T3, VEGF (VEGF 1-165 aa, R&D Systems …); assay: Direct bind ELISA, VEGF coated on plate; VEGF domain N-term., HC long/LC short
[8] = molecular target: T4, IGF2 (UniProt P01344 25-91, limits assumed); assay: cell-based or functional assay
[9] = molecular target: T5, IGF1 (UniProt P05019 49-118, limits assumed); assay: cell-based or functional assay
[10] = molecular target: recombinant human VEGF165 (human, UniProt P15692-4 27-191); assay: cell-based or functional assay
[11] = molecular target: T4, IGF2; assay: cell-based or functional assay; remark: listed apart in the source
[12] = molecular target: T5, IGF1; assay: cell-based or functional assay; remark: listed apart in the source

T3 sequence (P15692 other isoform, or with tags, fused parts or gaps limits assumed): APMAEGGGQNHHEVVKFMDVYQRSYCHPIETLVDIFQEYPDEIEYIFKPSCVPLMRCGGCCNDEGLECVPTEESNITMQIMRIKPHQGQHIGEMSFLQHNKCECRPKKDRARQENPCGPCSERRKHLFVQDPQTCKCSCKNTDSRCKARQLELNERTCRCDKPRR
recombinant human VEGF165, sequence (P15692 other isoform, or with tags, fused parts or gaps limits assumed): as above

B1: AB063 (antibody, human IgG1, kappa, V domains shown)
VH: EVQLVESGGGLVQPGGSLRLSCAASGFTFSIYSMNWVRQAPGKGLEWVSYISSSSSTIYYADSVKGRFTISRDNAKNSLYLQMNSLRDEDTAVYYCARDRGDFDAFDIWGQGTMVTVSS
VL: DIQMTQSPSSLSASVGDRVTITCQASQDITNYLNWYQQKPGKAPKLLIYDASNLETGVPSRFSGSGSGTDFTFTISSLQPEDIATYNCQQCENFPITFGQGTRLEIKR
notes: also called AB063VH
- EC50 [1]: 0.87 nM and 0.92 nM and 1.1 nM

B2: AB011 (antibody, human IgG1, kappa, V domains shown)
VH: EVQLLESGGGLVQPGGSLRLSCTASGFTFSSYAMNWVRQAPGKGLEWVSAISGSGGTTFYADSVKGRFTISRDNSRTTLYLQMNSLRAEDTAVYYCAKDLGWSDSYYYYYGMDVWGQGTTVTVSS
VL: DIQMTQFPSSLSASVGDRVTITCRASQGIRNDLGWYQQKPGKAPKRLIYAASRLHRGVPSRFSGSGSGTEFTLTISSLQPEDFATYYCLQHNSYPCSFGQGTKLEIKR
- A431, EGFR line proliferation inhibition IC50 [2]: > 67 nM
- A431, EGFR line proliferation inhibition, max [2]: 5 % max
- GEO, EGFR/IGF1R line proliferation inhibition IC50 [3]: > 67 nM
- GEO, EGFR/IGF1R line proliferation inhibition, max [3]: 15 % max
- H929, IGF1R line proliferation inhibition IC50 [4]: 0.1 nM
- H929, IGF1R line proliferation inhibition, max [4]: 65 % max

B3: DVD508 (bispecific antibody, human IgG1, kappa)
heavy: not shown
light: DIQMTQSPSSLSASVGDRVTITCRASQDVSTAVAWYQQKPGKAPKLLIYSASFLYSGVPSRFSGSGSGTDFTLTISSLQPEDFATYYCQQSYTTPPTFGQGTKVEIKRTVAAPSVFIFPPDIQMTQSSSYLSVSLGGRVTITCKASDHINNWLAWYQQKPGNAPRLLISGATSLETGVPSRFSGSGSGKDYTLSITSLQTEDVATYYCQQYWSIPLTFGAGTKLELKRTVAAPSVFIFPPSDEQLKSGTASVVCLLNNFYPREAKVQWKVDNALQSGNSQESVTEQDSKDSTYSLSSTLTLSKADYEKHKVYACEVTHQGLSSPVTKSFNRGEC
notes: DVD-Ig; N-term; AB070 (VEGF), C-term; AB072 (DLL4); HC linker short, LC linker long; also called DVD-Ig DVD508; DVD508H/DVD508L
- EC50 [5]: 7.88 nM

B4: DVD531 (bispecific antibody, human IgG1, kappa, lambda)
heavy: not shown
light: QAVVTQESALTTSPGETVTLTCRSSTGAVTTSNYANWVQEKPDHLFTGLIGGTNNRAPGVPARFSGSLIGDKAALTITGAQTEDEAIYFCALWYSNHWVFGGGTKLTVLGQPKAAPSVTLFPPDIQMTQSPSSLSASVGDRVTITCRASQDVSTAVAWYQQKPGKAPKLLIYSASFLYSGVPSRFSGSGSGTDFTLTISSLQPEDFATYYCQQSYTTPPTFGQGTKVEIKRTVAAPSVFIFPPSDEQLKSGTASVVCLLNNFYPREAKVQWKVDNALQSGNSQESVTEQDSKDSTYSLSSTLTLSKADYEKHKVYACEVTHQGLSSPVTKSFNRGEC
notes: DVD-Ig; N-term; AB073 (DLL4), C-term; AB070 (VEGF); HC linker short, LC linker long; also called DVD-Ig DVD531; DVD531H/DVD531L
- EC50 [6]: 60.4 nM

B5: DVD510 (bispecific antibody, human IgG1, kappa)
heavy: not shown
light: DIQMTQSPSSLSASVGDRVTITCRASQVIRRSLAWYQQKPGKAPKLLIYAASNLASGVPSRFSGSGSGTDFTLTISSLQPEDFATYYCQQSNTSPLTFGQGTKVEIKRTVAAPSVFIFPPDIQMTQSSSYLSVSLGGRVTITCKASDHINNWLAWYQQKPGNAPRLLISGATSLETGVPSRFSGSGSGKDYTLSITSLQTEDVATYYCQQYWSIPLTFGAGTKLELKRTVAAPSVFIFPPSDEQLKSGTASVVCLLNNFYPREAKVQWKVDNALQSGNSQESVTEQDSKDSTYSLSSTLTLSKADYEKHKVYACEVTHQGLSSPVTKSFNRGEC
notes: DVD-Ig; N-term; AB071 (VEGF), C-term; AB072 (DLL4); HC linker short, LC linker long; also called DVD-Ig DVD510; DVD510H/DVD510L
- EC50 [5]: 23.9 nM

B6: DVD504 (bispecific antibody, human IgG1, kappa)
heavy: not shown
light: DIQMTQSPSSLSASVGDRVTITCRASQVIRRSLAWYQQKPGKAPKLLIYAASNLASGVPSRFSGSGSGTDFTLTISSLQPEDFATYYCQQSNTSPLTFGQGTKVEIKRTVAAPDIQMTQSSSYLSVSLGGRVTITCKASDHINNWLAWYQQKPGNAPRLLISGATSLETGVPSRFSGSGSGKDYTLSITSLQTEDVATYYCQQYWSIPLTFGAGTKLELKRTVAAPSVFIFPPSDEQLKSGTASVVCLLNNFYPREAKVQWKVDNALQSGNSQESVTEQDSKDSTYSLSSTLTLSKADYEKHKVYACEVTHQGLSSPVTKSFNRGEC
notes: DVD-Ig; N-term; AB071 (VEGF), C-term; AB072 (DLL4); HC linker long, LC linker short; also called DVD-Ig DVD504; DVD504H/DVD504L
- EC50 [7]: 16.7 nM

B7: DVD532 (bispecific antibody, human IgG1, kappa, lambda)
heavy: not shown
light: DIQMTQSPSSLSASVGDRVTITCRASQDVSTAVAWYQQKPGKAPKLLIYSASFLYSGVPSRFSGSGSGTDFTLTISSLQPEDFATYYCQQSYTTPPTFGQGTKVEIKRTVAAPSVFIFPPQAVVTQESALTTSPGETVTLTCRSSTGAVTTSNYANWVQEKPDHLFTGLIGGTNNRAPGVPARFSGSLIGDKAALTITGAQTEDEAIYFCALWYSNHWVFGGGTKLTVLGQPKAAPSVTLFPPSSEELQANKATLVCLISDFYPGAVTVAWKADSSPVKAGVETTTPSKQSNNKYAASSYLSLTPEQWKSHRSYSCQVTHEGSTVEKTVAPTECS
notes: DVD-Ig; N-term; AB070 (VEGF), C-term; AB073 (DLL4); HC linker short, LC linker long; also called DVD-Ig DVD532; DVD532H/DVD532L
- EC50 [5]: 28.9 nM

B8: AB067 (antibody, human IgG1, lambda, L234A L235A, V domains shown)
VH: EVQLLESGGGLVQPGGSLRLSCAASGFTFSHYVMAWVRQAPGKGLEWVSSISSSGGWTLYADSVKGRFTISRDNSKNTLYLQMNSLRAEDTAVYYCTRGLKMATIFDYWGQGTLVTVSS
VL: QSALTQPASVSGSPGQSITISCTGTSSDVGSYNVVSWYQQHPGKAPKLIIYEVSQRPSGVSNRFSGSKSGNTASLTISGLQTEDEADYYCCSYAGSSIFVIFGGGTKVTVLG
notes: also called AB067VH
- EC50 [1]: 1.78 nM and 2.2 nM and 1.12 nM

B9: DVD041 (bispecific antibody, human IgG1, lambda)
heavy: not shown
light: DIQMTQSPSSLSASVGDRVTITCSASQDISNYLNWYQQKPGKAPKVLIYFTSSLHSGVPSRFSGSGSGTDFTLTISSLQPEDFATYYCQQYSTVPWTFGQGTKVEIKRTVAAPQSVLTQPPSVSAAPGQKVTISCSGSSSNIENNHVSWYQQLPGTAPKLLIYDNNKRPSGIPDRFSGSKSGTSATLGITGLQTGDEADYYCETWDTSLSAGRVFGGGTKLTVLGQPKAAPSVTLFPPSSEELQANKATLVCLISDFYPGAVTVAWKADSSPVKAGVETTTPSKQSNNKYAASSYLSLTPEQWKSHRSYSCQVTHEGSTVEKTVAPTECS
- A431, EGFR line proliferation inhibition IC50 [8]: > 50 nM
- A431, EGFR line proliferation inhibition, max [8]: 0%
- A431, EGFR line proliferation inhibition IC50 [9]: > 50 nM
- A431, EGFR line proliferation inhibition, max [9]: 0%
- A431, EGFR line proliferation inhibition IC50 [10]: > 50 nM
- A431, EGFR line proliferation inhibition, max [10]: 0%

B10: AB062 (antibody, human IgG1, kappa, V domains shown)
VH: QVQLQQWGAGLLKPSETLSLTCAVYGGSFSGYYWSWIRQPPGKGLEWIGEINHSGSTNYNPSLKSRVTISVETSKNQFSLKLSSVTAADTAVYYCARDKWTWYFDLWGRGTLVTVSS
VL: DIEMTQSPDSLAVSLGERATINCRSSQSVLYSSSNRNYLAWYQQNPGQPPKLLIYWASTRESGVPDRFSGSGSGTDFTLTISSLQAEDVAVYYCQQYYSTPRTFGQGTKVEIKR
notes: also called AB062VH
- EC50 [1]: 0.75 nM and 0.97 nM and 1.6 nM

B11: DVD502 (bispecific antibody, human IgG1, kappa)
heavy: not shown
light: DIQMTQSPSSLSASVGDRVTITCRASQDVSTAVAWYQQKPGKAPKLLIYSASFLYSGVPSRFSGSGSGTDFTLTISSLQPEDFATYYCQQSYTTPPTFGQGTKVEIKRTVAAPDIQMTQSSSYLSVSLGGRVTITCKASDHINNWLAWYQQKPGNAPRLLISGATSLETGVPSRFSGSGSGKDYTLSITSLQTEDVATYYCQQYWSIPLTFGAGTKLELKRTVAAPSVFIFPPSDEQLKSGTASVVCLLNNFYPREAKVQWKVDNALQSGNSQESVTEQDSKDSTYSLSSTLTLSKADYEKHKVYACEVTHQGLSSPVTKSFNRGEC
notes: DVD-Ig; N-term; AB070 (VEGF), C-term; AB072 (DLL4); HC linker long, LC linker short; also called DVD-Ig DVD502; DVD502H/DVD502L
- EC50 [7]: 3.25 nM

B12: DVD507 (bispecific antibody, human IgG1, kappa, L234A L235A)
heavy: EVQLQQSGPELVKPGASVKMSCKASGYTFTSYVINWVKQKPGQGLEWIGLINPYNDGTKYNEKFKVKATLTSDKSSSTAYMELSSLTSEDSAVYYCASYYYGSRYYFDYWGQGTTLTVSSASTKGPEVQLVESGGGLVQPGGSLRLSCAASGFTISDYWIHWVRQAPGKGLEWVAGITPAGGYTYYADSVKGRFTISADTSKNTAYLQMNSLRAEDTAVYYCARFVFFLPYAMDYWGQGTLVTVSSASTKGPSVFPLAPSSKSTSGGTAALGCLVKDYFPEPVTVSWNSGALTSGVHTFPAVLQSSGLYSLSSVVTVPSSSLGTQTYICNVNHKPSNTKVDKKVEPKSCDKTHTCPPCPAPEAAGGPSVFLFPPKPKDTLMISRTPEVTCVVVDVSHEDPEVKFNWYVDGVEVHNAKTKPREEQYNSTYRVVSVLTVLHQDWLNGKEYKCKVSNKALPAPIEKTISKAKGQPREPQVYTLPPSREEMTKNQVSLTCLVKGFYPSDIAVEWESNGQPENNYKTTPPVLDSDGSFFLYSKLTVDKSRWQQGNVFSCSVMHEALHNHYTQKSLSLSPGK
light: DIQMTQSSSYLSVSLGGRVTITCKASDHINNWLAWYQQKPGNAPRLLISGATSLETGVPSRFSGSGSGKDYTLSITSLQTEDVATYYCQQYWSIPLTFGAGTKLELKRTVAAPSVFIFPPDIQMTQSPSSLSASVGDRVTITCRASQDVSTAVAWYQQKPGKAPKLLIYSASFLYSGVPSRFSGSGSGTDFTLTISSLQPEDFATYYCQQSYTTPPTFGQGTKVEIKRTVAAPSVFIFPPSDEQLKSGTASVVCLLNNFYPREAKVQWKVDNALQSGNSQESVTEQDSKDSTYSLSSTLTLSKADYEKHKVYACEVTHQGLSSPVTKSFNRGEC
notes: DVD-Ig; N-term; AB072 (DLL4), C-term; AB070 (VEGF); HC linker short, LC linker long; also called DVD-Ig DVD507; DVD507H/DVD507L
- EC50 [6]: 34.9 nM

B13: AB010 (antibody, human IgG1, lambda, V domains shown)
VH: QVQLVQSGAEVKKPGASVKVSCKASGYTFTSYDINWVRQATGQGLEWMGWMNPNSGNTGYAQKFQGRVTMTRNTSISTAYMELSSLRSEDTAVYYCARDPYYYYYGMDVWGQGTTVTVSS
VL: QSVLTQPPSVSAAPGQKVTISCSGSSSNIENNHVSWYQQLPGTAPKLLIYDNNKRPSGIPDRFSGSKSGTSATLGITGLQTGDEADYYCETWDTSLSAGRVFGGGTKLTVLG
- A431, EGFR line proliferation inhibition IC50 [8]: > 67 nM
- A431, EGFR line proliferation inhibition, max [8]: 10 % max
- A431, EGFR line proliferation inhibition IC50 [9]: > 67 nM
- A431, EGFR line proliferation inhibition, max [9]: 10 % max
- H929, IGF1R line proliferation inhibition IC50 [11]: 1.6 nM
- H929, IGF1R line proliferation inhibition, max [11]: 70 % max
- H929, IGF1R line proliferation inhibition IC50 [12]: 1.6 nM
- H929, IGF1R line proliferation inhibition, max [12]: 70 % max

B14: DVD509 (bispecific antibody, human IgG1, kappa)
heavy: not shown
light: DIQMTQSSSYLSVSLGGRVTITCKASDHINNWLAWYQQKPGNAPRLLISGATSLETGVPSRFSGSGSGKDYTLSITSLQTEDVATYYCQQYWSIPLTFGAGTKLELKRTVAAPSVFIFPPDIQMTQSPSSLSASVGDRVTITCRASQVIRRSLAWYQQKPGKAPKLLIYAASNLASGVPSRFSGSGSGTDFTLTISSLQPEDFATYYCQQSNTSPLTFGQGTKVEIKRTVAAPSVFIFPPSDEQLKSGTASVVCLLNNFYPREAKVQWKVDNALQSGNSQESVTEQDSKDSTYSLSSTLTLSKADYEKHKVYACEVTHQGLSSPVTKSFNRGEC
notes: DVD-Ig; N-term; AB072 (DLL4), C-term; AB071 (VEGF); HC linker short, LC linker long; also called DVD-Ig DVD509; DVD509H/DVD509L
- EC50 [6]: 121 nM
